{"source": "paper PMC8677511", "data": [{"molecular_target": "TDP-43 recombinant (rTDP-43) (UniProt Q13148 1-414)", "sequence (Q13148 whole entry)": "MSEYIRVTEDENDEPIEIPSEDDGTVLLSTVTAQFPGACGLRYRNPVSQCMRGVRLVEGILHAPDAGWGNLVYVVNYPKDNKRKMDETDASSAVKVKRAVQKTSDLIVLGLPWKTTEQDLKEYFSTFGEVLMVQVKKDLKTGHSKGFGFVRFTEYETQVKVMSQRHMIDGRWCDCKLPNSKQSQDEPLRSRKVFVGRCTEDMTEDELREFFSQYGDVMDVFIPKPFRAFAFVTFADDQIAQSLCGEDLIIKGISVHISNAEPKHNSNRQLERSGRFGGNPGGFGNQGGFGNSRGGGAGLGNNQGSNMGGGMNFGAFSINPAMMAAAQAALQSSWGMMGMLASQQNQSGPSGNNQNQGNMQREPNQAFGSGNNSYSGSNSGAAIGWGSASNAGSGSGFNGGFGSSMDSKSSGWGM", "experiment": "pull-down", "values": [{"binder": "UUUUUUGUGUGUUAAUGGUGUGUG (ssRNA)", "note": "[G3BP1 3' UTR probe (nt334-358)]", "binding result": "binds"}, {"binder": "ACACACACACACACACACACACAC (ssRNA)", "note": "[(AC)12]", "binding result": "no binding"}, {"binder": "UGUGUGUGUGUGCGCGUGUGCGUGUG (ssRNA)", "note": "[GRN (nt262-288) probe]", "binding result": "binds"}]}]}
